Common to all, as to test: Western blot: E. coli lysate with the GST-tagged peptide, SDS-PAGE, PVDF membrane, POD-labelled antibody diluted 1000-fold, ECL
For orientation: In western blotting, separated proteins are transferred to a membrane and probed.

Experiment [1] concerns the target T1, GST-tagged peptide H1 (full-length human IgG4 heavy chain constant region) (human, UniProt P01861 1-325 = IgG part).
T1 construct: Expressed in E. coli BL21; lysate, reduced and heat-denatured, on SDS-PAGE / Western blot; not shown: GST tag (glutathione S-transferase) linked to the N terminal, expressed from vector pGEX-6P-1
How it is done: (§1) Based on the designed amino acid sequences, base sequences suitable for expressing protein in E. coli were designed according to the protocol of GenScript Corporation, thereby preparing vector pGEX-6P-1 (GE Healthcare Bio-Sciences Corp.) to which the respective base sequences are inserted. The prepared expression plasmid was introduced to E. coli BL 21 strain, thereby obtaining a transformant. The transformant was cultured by an ordinary method and a protein expression was induced by IPTG. After the cells were collected by centrifugation, the cells were dissolved with an ordinary lysis solution, and subjected to ultrasonication. 6 μL of an SDS sample buffer solution was added to 6 μL of the obtained lysate. The respective prepared samples were subjected to a heat treatment at 95° C. for 5 minutes. 10 μL of the E. coli disrupted sample was added to each well of 5 to 20% electrophoresis gel (Atto Corportation) to which an SDS electrophoresis buffer solution was added. Similarly, a molecular weight standard (Bio-Rad Laboratories, Inc.) was added to each well and electrophoresed. After completing the electrophoresis, the electrophoresis gel was transcribed to a PVDF membrane (Millipore Corporation) with a transfer buffer solution. The PVDF membrane was immersed in a membrane blocking buffer solution, and then shaking was carried out at room temperature for 30 minutes. Amino groups of MaI4-08, MaI4-09, and MaI4-05-produced antibodies were subjected to a POD labeling treatment with a POD labeling kit (Dojindo Molecular Technologies, Inc.). The obtained labeled antibodies each were diluted 1000-fold by PBST. After the PVDF membrane was cleaned with PBST, the antibody solutions prepared each were added to the PVDF membrane, and then the reaction was performed at room temperature for 1 hour. After the PVDF membrane was cleaned by PBST, a signal was detected with ECL Prime Western Blotting Detection Reagents (GE Healthcare) with Image Quant Las4000.

The target in experiment [2] is T2, GST-tagged peptide H33 (H10 with glutamine for glutamic acid at position 299) (human, UniProt P01861 221-325 = IgG part).
T2 construct: not shown: GST tag (glutathione S-transferase) linked to the N terminal, expressed from vector pGEX-6P-1
T2 chain: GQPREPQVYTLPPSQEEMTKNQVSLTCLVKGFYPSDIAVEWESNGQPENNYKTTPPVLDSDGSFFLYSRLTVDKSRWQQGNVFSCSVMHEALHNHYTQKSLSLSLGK
The method, then: as §1

In experiment [3] the target is T3, GST-tagged peptide H11 (positions 275 to 327 of the human IgG4 heavy chain constant region) (human, UniProt P01861 275-325 = IgG part).
T3 construct: E. coli lysate on Western blot; not shown: GST tag (glutathione S-transferase) linked to the N terminal, expressed from vector pGEX-6P-1
The method, then:
as §1

Experiment [4] concerns the target T4, GST-tagged peptide H3 (positions 1 to 220 of the human IgG4 heavy chain constant region) (human, UniProt P01861 1-220 = IgG part).
T4 construct: E. coli lysate on Western blot; not shown: GST tag (glutathione S-transferase) linked to the N terminal, expressed from vector pGEX-6P-1
The method, then: as §1

Experiment [5] concerns the target T5, GST-tagged peptide H34 (H10 with proline for leucine at position 325) (human, UniProt P01861 221-324 = IgG part).
T5 construct: not shown: GST tag (glutathione S-transferase) linked to the N terminal, expressed from vector pGEX-6P-1
The method, then:
as §1

For experiment [6], the target named is T6, GST-tagged peptide H2 (positions 1 to 274 of the human IgG4 heavy chain constant region) (human, UniProt P01861 1-274 = IgG part).
T6 construct: E. coli lysate on Western blot; not shown: GST tag (glutathione S-transferase) linked to the N terminal, expressed from vector pGEX-6P-1
The method, then: as §1

In experiment [7] the target is T7, GST-tagged peptide H4 (positions 1 to 165 of the human IgG4 heavy chain constant region) (human, UniProt P01861 1-165 = IgG part).
T7 construct: E. coli lysate on Western blot; not shown: GST tag (glutathione S-transferase) linked to the N terminal, expressed from vector pGEX-6P-1
How it is done:
as §1

Experiment [8] concerns the target T8, GST-tagged peptide H12 (positions 99 to 220 of the human IgG4 heavy chain constant region) (human, UniProt P01861 99-220 = IgG part).
T8 construct: E. coli lysate on Western blot; not shown: GST tag (glutathione S-transferase) linked to the N terminal, expressed from vector pGEX-6P-1
The method, then: as §1

Experiment [9] addresses T9, GST-tagged peptide H38 (H10 with R289K, E299Q and L325P) (human, UniProt P0DOX5 343-449 = IgG part).
T9 construct: not shown: N-terminal GST tag (from vector pGEX-6P-1) and any vector linker
T9 chain: T2 chain with R69K, L105P
How it is done:
as §1

The target in experiment [10] is T10, GST-tagged peptide H5 (positions 1 to 110 of the human IgG4 heavy chain constant region) (human, UniProt P01861 1-110 = IgG part).
T10 construct: E. coli lysate on Western blot; not shown: GST tag (glutathione S-transferase) linked to the N terminal, expressed from vector pGEX-6P-1
The method, then: as §1

Experiment [11] concerns the target T11, GST-tagged peptide H32 (H10 with lysine for arginine at position 289) (human, UniProt P01861 221-325 = IgG part).
T11 construct: not shown: GST tag (glutathione S-transferase) linked to the N terminal, expressed from vector pGEX-6P-1
T11 chain: T2 chain with R69K, Q79E
The method, then: as §1

Positions count from the first letter of the chain named.

T8 sequence (P01861 99-220): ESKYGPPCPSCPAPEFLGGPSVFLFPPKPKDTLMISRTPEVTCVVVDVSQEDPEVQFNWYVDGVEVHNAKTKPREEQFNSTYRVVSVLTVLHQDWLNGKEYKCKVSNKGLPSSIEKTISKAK
T4 sequence (P01861 1-220): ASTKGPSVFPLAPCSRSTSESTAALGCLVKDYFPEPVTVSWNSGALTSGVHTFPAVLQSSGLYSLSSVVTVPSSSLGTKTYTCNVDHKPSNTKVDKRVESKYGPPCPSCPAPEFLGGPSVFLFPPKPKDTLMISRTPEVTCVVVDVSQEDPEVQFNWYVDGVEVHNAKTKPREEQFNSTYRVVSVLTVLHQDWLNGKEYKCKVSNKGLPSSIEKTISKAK
T10 sequence (P01861 1-110): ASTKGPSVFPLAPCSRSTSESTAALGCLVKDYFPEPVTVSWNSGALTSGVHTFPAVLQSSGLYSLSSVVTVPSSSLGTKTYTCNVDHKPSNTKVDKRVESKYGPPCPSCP
T7 sequence (P01861 1-165): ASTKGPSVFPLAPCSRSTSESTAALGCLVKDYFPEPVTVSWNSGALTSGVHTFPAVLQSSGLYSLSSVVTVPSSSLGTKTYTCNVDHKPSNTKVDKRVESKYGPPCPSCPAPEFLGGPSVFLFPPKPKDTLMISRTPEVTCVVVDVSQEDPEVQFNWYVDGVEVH
T6 sequence (P01861 1-274): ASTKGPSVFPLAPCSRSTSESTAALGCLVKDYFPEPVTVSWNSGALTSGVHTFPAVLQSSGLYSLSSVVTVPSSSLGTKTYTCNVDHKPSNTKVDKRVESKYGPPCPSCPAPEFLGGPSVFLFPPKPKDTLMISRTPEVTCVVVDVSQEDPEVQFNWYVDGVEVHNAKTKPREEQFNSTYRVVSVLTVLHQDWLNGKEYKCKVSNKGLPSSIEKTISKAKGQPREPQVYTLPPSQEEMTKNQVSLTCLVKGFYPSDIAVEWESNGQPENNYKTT

B1: MaI4-08-produced antibody (antibody, IgG1, V domains shown)
VH: EVQLQQSGPELVKPGTSVKMSCKASGYIFTSYILHWVKQKPGQGLEWIAYINPYNDGTKYKEKFKGKGTLTSDKSSSTAYMELSSLTSEDSAVYYCARSGGGYGNYAWFAYWGPGTLVTVST
VL: DIQMTQSPSSLSASLGERVSLTCRASQDIGSSLNWLQQEPDGTIKRLIYATSSLDSGVPKRFSGSRSGSDYSLTISSLESEDFVDYYCLQYASYPPTFGAGTKLELK
notes: Purified on protein G from hybridoma culture supernatant; POD-labelled for the Western blots
For B1, the binding result is on record as “binds” in [1]; “no binding” in [2]; “no binding” in [3]; “no binding” in experiment [4]; “binds” in [5]; “no binding” in experiment [6]. In addition, the binding result in experiment [7] is reported as “no binding”; in experiment [8], “no binding”; in experiment [9], “no binding”; in experiment [10], “no binding”; in experiment [11], “binds”.

The values above are taken from patent publication US20210140973A1 (NITTO BOSEKI, published 2021).
